The values below come from publication PMC5038328, “IMP-27, a Unique Metallo-β-Lactamase Identified in Geographically Distinct Isolates of Proteus mirabilis” (Antimicrobial Agents and Chemotherapy, 2016).

Data set [1] concerns the target T1, IMP-27 (Proteus mirabilis, UniProt F8UQX1).
T1 construct: gene PCR amplified from 2009 isolate DNA, pET-9a, E. coli BL21(DE3)/pLysS; KF501391 is the class 2 integron record
Briefly: inhibition of nitrocefin hydrolysis, spectrophotometric initial rates. The data set is classed as biochemical.

Data set [2] addresses T1, IMP-27. Briefly: spectrophotometric initial rates. The data set is classed as biochemical. The text has this: spectrophotometric initial rates on IMP-27
In data set [3] the test system is CO/N=C(\C(=O)N[C@@H]1C(=O)N2C(C(=O)O)=C(COC(C)=O)CS[C@H]12)c1csc(N)n1. Briefly: spectrophotometric initial hydrolysis rates. In kind it is biochemical, Proteus mirabilis. The text has this:
(§1) spectrophotometric initial hydrolysis rates on IMP-27

Data set [4] deals with CO/N=C(\C(=O)N[C@@H]1C(=O)N2C(C(=O)[O-])=C(C[N+]3(C)CCCC3)CS[C@H]12)c1csc(N)n1. The data set can be described thus: spectrophotometric initial hydrolysis rates. In kind it is biochemical, Proteus mirabilis.
Source text: as §1

Data set [5] relates to CC(C)(O/N=C(\C(=O)N[C@@H]1C(=O)N2C(C(=O)[O-])=C(C[n+]3ccccc3)CS[C@H]12)c1csc(N)n1)C(=O)O. Briefly: spectrophotometric initial hydrolysis rates. The data set is classed as biochemical, Proteus mirabilis.
Source text: as §1

For data set [6], the system named is O=C(Cc1cccs1)N[C@@H]1C(=O)N2C(C(=O)O)=C(/C=C/c3ccc([N+](=O)[O-])cc3[N+](=O)[O-])CS[C@H]12. The data set can be described thus: spectrophotometric initial hydrolysis rates. In kind it is biochemical, Proteus mirabilis.
Source text: as §1

The test system of data set [7] is C[C@@H](O)[C@H]1C(=O)N2C(C(=O)O)=C(SCCN=CN)C[C@H]12. Briefly: competition with nitrocefin hydrolysis, spectrophotometric. The data set is classed as biochemical, Proteus mirabilis. The settings on record: Km measured as Ki with nitrocefin as reporter substrate. The text has this:
(§2) competition with nitrocefin hydrolysis, spectrophotometric on IMP-27

Data set [8] concerns C[C@@H](O)[C@H]1C(=O)N2C(C(=O)O)=C(S[C@@H]3CN[C@H](C(=O)N(C)C)C3)[C@H](C)[C@H]12. Described as above. The settings on record: Km measured as Ki with nitrocefin as reporter substrate. In kind it is biochemical, Proteus mirabilis.
Source text: as §2

T1 sequence (F8UQX1 entry or part of it): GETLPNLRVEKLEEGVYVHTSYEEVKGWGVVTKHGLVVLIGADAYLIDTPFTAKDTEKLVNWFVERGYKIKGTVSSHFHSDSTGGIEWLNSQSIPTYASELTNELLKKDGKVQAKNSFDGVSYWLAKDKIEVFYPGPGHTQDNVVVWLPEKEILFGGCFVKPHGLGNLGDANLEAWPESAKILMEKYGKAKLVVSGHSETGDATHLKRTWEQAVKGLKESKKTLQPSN

With `O=C(O)CN(CCN(CC(=O)O)CC(=O)O)CC(=O)O` [EDTA], on IMP-27 [1] (read-out: Ki), the Ki worked out at 11 ± 0.9 mM.

For `C[C@H]1[C@H](NC(=O)/C(=N\OC(C)(C)C(=O)O)c2csc(N)n2)C(=O)N1S(=O)(=O)O` [aztreonam], the Ki at IMP-27 [2] was more than 23 mM.

As for `O=C(O)c1cccc(C(=O)O)n1` [dipicolinic acid], the Ki at IMP-27 [1] (read-out: Ki) was found to be 4.6 ± 0.13 mM.

As to `CCN1CCN(C(=O)N[C@@H](C(=O)N[C@@H]2C(=O)N3[C@@H]2SC(C)(C)[C@@H]3C(=O)O)c2ccccc2)C(=O)C1=O` [piperacillin], on IMP-27 [1] (read-out: IMP-27 / Km or Ki), the Ki was 3 mM.

For IMP-27 (Proteus mirabilis), the Michaelis-Menten constant (Km) in data set [3] amounted to 24 ± 1.9 µM; in data set [4], 53 ± 3.6 µM; in data set [5] it was 54 ± 4.3 µM; in data set [6] it was 36 ± 3.1 µM; in data set [7], 310 ± 19 µM; in data set [8], 2.3 ± 0.8 µM. Moreover, the kcat was 20 ± 0.66 s⁻¹ in data set [3]; 8.1 ± 0.37 s⁻¹ in data set [4]; 0.7 ± 0.03 s⁻¹ in data set [5]; 370 ± 15 s⁻¹ in data set [6]; 34 ± 0.38 s⁻¹ in data set [7]; 3.4 ± 0.53 s⁻¹ in data set [8]. Further, the kcat/Km in data set [3] came to 860000 M⁻¹ s⁻¹; in data set [4], 150000 M⁻¹ s⁻¹; in data set [5], 13000 M⁻¹ s⁻¹; in data set [6], 1e+07 M⁻¹ s⁻¹; in data set [7], 110000 M⁻¹ s⁻¹; in data set [8], 1.5e+06 M⁻¹ s⁻¹.
